Literature values, collected in publication PMC8151241.

Key:
[1] = target: GAPDH (Chlamydomonas reinhardtii) (UniProt P50362)
[2] = target: PRK (Chlamydomonas reinhardtii) (UniProt P19824)
[3] = target: CP12-GAPDH complex (Chlamydomonas reinhardtii) (UniProt A6Q0K5)

Sequence of UniProt P50362 (P50362 35-374): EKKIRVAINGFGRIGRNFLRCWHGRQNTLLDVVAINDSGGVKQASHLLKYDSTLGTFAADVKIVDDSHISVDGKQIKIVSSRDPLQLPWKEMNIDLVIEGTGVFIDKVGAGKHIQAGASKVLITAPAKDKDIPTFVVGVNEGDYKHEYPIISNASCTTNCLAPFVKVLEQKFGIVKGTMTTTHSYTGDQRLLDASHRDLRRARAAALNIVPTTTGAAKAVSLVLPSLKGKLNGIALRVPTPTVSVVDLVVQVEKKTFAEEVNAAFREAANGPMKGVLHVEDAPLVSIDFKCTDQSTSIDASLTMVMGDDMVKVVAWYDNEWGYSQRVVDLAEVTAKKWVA

Substance | Kd [1] [µM] | Kd [2] [µM] | Kd [3] [µM]
CP12 (from UniProt A6Q0K5) | 0.0004 | 1.3 | –
PRK (from UniProt P19824) | – | – | 0.06
